The EC50 (read off the curve) is the concentration giving half of the maximal effect. Lower therefore signals higher potency in that assay. Usually Kd stands for the equilibrium constant for the complex coming apart. A low value points to tighter binding. The koff is the first-order rate constant of dissociation. Low values mean a long-lived complex, high ones a short-lived complex. In general, kon refers to the rate constant with which the complex forms. Low readings indicate slower complex formation, high ones faster complex formation.

Where a chain is given by its changes, count along the chain named.

Assay [1] deals with T1, Cynomolgus PAR2 on BacMam-infected HEK293 cells (cynomolgus).
T1 construct: whole, on cells; also called cyno PAR-2; Cyno PAR2
The assay is described as follows: flow cytometry on HEK293F-cynoPAR2 (3.0E+06 cells/mL, w/ NaN3), overnight at about 5 C, S/BG [continued].

In assay [2] the target is T2, Wildtype human PAR2 expressed on cells (human, UniProt P55085 37-397).
T2 construct: also called huPAR2; WT FL-huPAR2
T2 sequence: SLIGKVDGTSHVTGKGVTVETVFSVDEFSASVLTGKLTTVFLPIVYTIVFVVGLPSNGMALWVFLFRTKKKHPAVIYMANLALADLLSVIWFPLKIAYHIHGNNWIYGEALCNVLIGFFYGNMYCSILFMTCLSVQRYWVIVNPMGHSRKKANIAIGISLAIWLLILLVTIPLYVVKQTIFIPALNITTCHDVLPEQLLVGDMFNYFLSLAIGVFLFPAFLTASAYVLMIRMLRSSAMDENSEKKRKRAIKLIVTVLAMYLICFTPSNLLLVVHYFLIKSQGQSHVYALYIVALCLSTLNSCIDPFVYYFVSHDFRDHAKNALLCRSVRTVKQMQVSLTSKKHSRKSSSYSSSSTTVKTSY
Kind of assay: flow cytometry on HEK293F-humanPAR2 (3.0E+06 cells/mL), S/BG [continued]. For orientation: In flow cytometry, cells or beads pass a laser one at a time.

Assay [3] concerns the target T2, Wildtype human PAR2 expressed on cells. Kind of assay: cell-based or functional assay.
Assay [4] has the same target. Kind of assay: cell-based or functional assay. The source holds these as a separate data set.
In assay [5] the target is T3, PAR2-3: P157: 1-377, glycosylated, pBacMamHisStrepII, full length (human, UniProt P55085 26-377).
T3 construct: detergent-solubilised analyte in SPR, or on infected cells in flow cytometry; also called FL-N PAR2 StaR; FL-N StaR; not shown: C-terminal StrepII and deca-histidine tags
T3 sequence: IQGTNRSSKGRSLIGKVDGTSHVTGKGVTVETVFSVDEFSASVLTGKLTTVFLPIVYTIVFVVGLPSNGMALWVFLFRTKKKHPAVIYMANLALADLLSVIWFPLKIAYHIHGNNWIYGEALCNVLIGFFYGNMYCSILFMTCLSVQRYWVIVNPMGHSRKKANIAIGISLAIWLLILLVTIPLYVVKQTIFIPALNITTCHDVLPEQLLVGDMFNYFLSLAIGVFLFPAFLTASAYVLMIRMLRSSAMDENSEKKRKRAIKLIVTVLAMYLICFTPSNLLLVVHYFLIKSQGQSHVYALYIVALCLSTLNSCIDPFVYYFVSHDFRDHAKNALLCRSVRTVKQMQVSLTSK
Kind of assay: SPR Biacore; IgG captured on anti-human IgG, 100 nM PAR2 analyte; 1:1 model. How it is done: The antibodies were captured on anti-human IgG chip surface followed by injection of 100 nM PAR2. The data were fitted to 1:1 interaction model except for clone ‘Y021160’ in which case heterogeneous ligand model was used and component with slow dissociation was used for comparison.
For three purified IgG1f_AEASS clones Y021171, Y022054 and Y022063 affinities to human PAR2-3 variant (P157: 1-377, glycosylated, pBacMamHisStrepII, full length) were determined by SPR immobilizing the IgG and probing with detergent (LMNG/CHS) solubilized FL-N PAR2 StaR. Affinities were 22 nM and 20 nM for Y022063 and Y021171, respectively.

For assay [6], the target named is T3, PAR2-3: P157: 1-377, glycosylated, …. Kind of assay: SPR Biacore T200; IgG captured on anti-human IgG, 250 nM PAR2 analyte; 1:1 model. How it is done:
The assay of PAR2 interaction with anti-PAR2 antibodies was carried out using a Biacore T200 instrument (GE Healthcare). Anti-human IgG antibody (Human Antibody Capture Kit, GE Healthcare) was immobilised by amine coupling on a sensor chip CM3 (GE Healthcare) to a surface density of 3500 to 4500 resonance units (RU). Immobilisation was carried out at 25° C. in HBS-EP+ buffer (GE Healthcare). The buffer was then changed to 50 mM HEPES, pH 7.5, 150 mM NaCl, 0.02% LMNG, 0.002% CHS. Each cycle of the PAR2-antibody interaction assay consisted of antibody capture (100 nM antibody injected for 2 min at a flow rate of 5 μL/min), PAR2 injection (blank or 250 nM, with contact and dissociation times of 2 and 3 minutes, respectively, at a flow rate of 20 μl/minute), and chip surface regeneration (30 seconds at 20 μl/minute) using the regeneration solution from Human Antibody Capture Kit (GE Healthcare). […] Measurements between each experimental data set were within the acceptable margins for this methodology.
The antibodies were captured on anti-human IgG chip surface followed by injection of 250 nM PAR2. The data were fitted to 1:1 interaction model.

Assay [7] concerns the target T2, Wildtype human PAR2 expressed on cells. The assay is described as follows: cell-based or functional assay. This is another data set of the same source.
The target in assay [8] is T4, Mouse PAR2 on Flp-In CHO cells (mouse, UniProt P55086 39-399).
T4 construct: whole, on cells
T4 sequence (looked up): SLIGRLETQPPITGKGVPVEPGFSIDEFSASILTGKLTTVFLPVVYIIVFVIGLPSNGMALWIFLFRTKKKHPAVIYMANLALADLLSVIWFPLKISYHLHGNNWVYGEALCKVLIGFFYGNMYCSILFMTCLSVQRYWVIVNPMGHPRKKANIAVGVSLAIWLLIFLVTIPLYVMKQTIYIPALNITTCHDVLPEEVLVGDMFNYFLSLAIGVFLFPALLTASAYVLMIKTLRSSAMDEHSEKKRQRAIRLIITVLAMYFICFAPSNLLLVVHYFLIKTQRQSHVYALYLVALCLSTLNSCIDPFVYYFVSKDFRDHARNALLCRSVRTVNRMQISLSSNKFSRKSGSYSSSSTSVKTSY
The assay is described as follows: cell binding, flow cytometry/IntelliCyt.

Assay [9] addresses T5, Human PAR2 StaR incorporated into nanodiscs (construct not stated) (human, UniProt P55085 37-377, limits assumed).
T5 construct: also called nanodisc-embedded StaR
T5 sequence: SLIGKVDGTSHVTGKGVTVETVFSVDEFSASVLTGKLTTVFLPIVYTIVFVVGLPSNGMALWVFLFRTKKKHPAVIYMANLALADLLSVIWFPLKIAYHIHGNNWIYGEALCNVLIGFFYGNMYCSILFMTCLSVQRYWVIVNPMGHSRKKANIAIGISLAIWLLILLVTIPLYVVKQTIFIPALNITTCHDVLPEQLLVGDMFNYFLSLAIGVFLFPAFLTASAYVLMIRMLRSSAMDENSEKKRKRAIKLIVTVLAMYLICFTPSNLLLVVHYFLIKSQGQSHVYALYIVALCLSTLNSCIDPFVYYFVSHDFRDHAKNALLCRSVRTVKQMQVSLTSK
Kind of assay: SPR Biacore; human PAR2 StaR incorporated into nanodiscs. For orientation: Surface plasmon resonance follows binding to a sensor surface in real time, without labels.

B1: Fab Y022870 (Fab, V domains shown)
VH: EVQLLESGGGLVQPGGSLRLSCAASGFSFSRYAITWVRQAPGKGLEWVSTISALGLETYYAESVRGRFTISRDNSKNTLYLQMNSLRAEDTAVYYCARGFHYTHSGKRYYYPFDIWGQGTLVTVSS
VL: QSALTQPASVSGSPGQSITISCTGTSSDVGSYNLVSWYQQHPGKAPKLMIYEGSKRPSGVSNRFSGSKSGNTASLTISGLQAEDEADYYCSQYATFIAFAVFGGGTKLTVLG
Consider B1, for which, in [1], the “EC50 (read off the curve)” value was approximately 2 nM.

B2: Fab Y022883 (Fab, V domains shown)
VH: B1 VH with S30T, T35S, T50V, A53G, L54H, L56S, T58A, Y59N, R65K
VL: B1 VL
As to B2, the “EC50 (read off the curve)” value in [1] is approximately 4 nM.

B3: Fab Y022877 (Fab, V domains shown)
VH: B1 VH with S28T, I34M, A53G, L56Q, T58A, E62G, R65K
VL: B1 VL
On to B3, for which the concentration giving a half-maximal response (EC50 (read off the curve)) in assay [2] was approximately 10 nM.

B4: Y021171 (antibody, V domains shown)
VH: EVQLVESGGGLVKPGGSLRLSCAASGFTFSSYSINWVRQAPGKGLEWVSSISSSSSYTYYAESVKGRFTISRDNAKNSLYLQMNSLRAEDTAVYYCARAASGFAIFDYWGQGTLVTVSS
VL: DIQMTQSPSSVSASVGDRVTITCRASQGISSWLAWYQQKPGKAPKLLIYAASSLQSGVPSRFSGSGSGTDFTLTISSLQPEDFATYYCQQTHYVPLTFGQGTKVEIKR
Take B4: the “% Max Inhibition, AP challenge, IP-One” value in assay [3] was 163%. In addition, the “% Max Inhibition, Bovine Trypsin challenge, IP-One” value in [4] was found to be 19%. In assay [5], this molecule came in with a Kd of 70 nM, an off-rate constant (koff) of 0.029 s⁻¹ and an on-rate (kon) of 410000 M⁻¹ s⁻¹. Also, in assay [6], the Kd came to 20 nM, the koff is 0.011 s⁻¹ and the kon amounted to 530000 M⁻¹ s⁻¹. Further, in assay [7], the “% Max Inhibition AP, IP-One” value was 32%. In [8], the binding result is “no binding”. In assay [9], this molecule gave a Kd of 31 nM, a koff of 0.037 s⁻¹ and a kon of 1.2e+06 M⁻¹ s⁻¹.

The values above are taken from US20250313621A1 (NXERA PHARMA UK, published 2025).
